The values below come from patent US20190359687A1.

For assay [1], the target named is purified human glycophorin A protein (Sigma, cat # G5017) (human) (UniProt P02724). The experiment in a line: ELISA, native hGPA.
Assay [2] concerns the target T1, GP5-15 alanine scanning peptide (human).
T1 sequence (peptide, N-terminal biotin): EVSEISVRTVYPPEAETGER
In words: alanine scanning peptide ELISA. A general note: In an ELISA, binding on a coated surface is turned into a signal by an enzyme label.

Assay [3] deals with T2, GP5-12 alanine scanning peptide (human).
T2 sequence (peptide, N-terminal biotin): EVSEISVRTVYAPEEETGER
The experiment in a line: alanine scanning peptide ELISA.

Assay [4] concerns the target T3, GP5-10 alanine scanning peptide (human).
T3 sequence (peptide, N-terminal biotin): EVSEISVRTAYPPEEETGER
The experiment in a line: alanine scanning peptide ELISA.

In assay [5] the target is recombinant human GPA ectodomain (human) (UniProt P02724). In words: ELISA, rec hGPA ectodomain.
Assay [6] concerns the target human glycophorin A on human red blood cells or red blood cell membranes (human) (UniProt P02724). In words: ELISA, Fab on coated human RBC membranes.
Assay [7] shares this target. In words: scFv on intact human RBC, unbound scFv by ELISA; 120 min after 200-fold dilution.
Assay [8] shares this target. The experiment in a line: scFv 7 ug/ml on intact human RBC, unbound scFv by ELISA; pre-dilution.
The target is the same in assay [9]. In words: scFv on intact human RBC, unbound scFv by ELISA; 0 min after 200-fold dilution.
Assay [10] has the same target. The experiment in a line: scFv on intact human RBC, unbound scFv by ELISA; 60 min after 200-fold dilution.
For assay [11] the target is unchanged. The experiment in a line: scFv on intact human RBC, unbound scFv by ELISA; 5 min after 200-fold dilution.
Assay [12] has the same target. In words: scFv on intact human RBC, unbound scFv by ELISA; 20 min after 200-fold dilution.

B1: TPP-5321 (Fab, V domains shown)
VH: EVQLVQSGAEVKKPGASVKVSCKASGYTFTTYTIHWVRQAPGQGLEWIGIINPSSDYTRYNPKFKDRVTLTTDKSTSTAYMELRSLRSDDTAVYYCQTGTRDYWGQGTTVTVSS
VL: DIQLTQSPSFLSASVGDRVTITCSAASSVSYIYWFQQKPGKAPKLLIYSTSTLPSGVPSRFSGSGSGTEYTLTISSLQPEDFATYYCHQRNSFPFTFGQGTKLEIKR
Turning to B1, in assay [1], the binding by ELISA relative to parental was found to be 0.06.

B2: TPP-5353 (Fab, V domains shown)
VH: EVQLVQSGAEVKKPGASVKVSCKASGYTFTTYTIHWVRQAPGQGLEWIGYINPSSDYTRYNPKFKDRVTLTTDKSTSTAYMELRSLRSDDTAVYYCQTGTRDYWGQGTTVTVSS
VL: DIQLTQSPSFLSASVGDRVTITCSAASSVSYIYWFQQKPGKAPKLLIYSTSTLPSGVPSRFSGSGSGTEYTLTISSLQPEDFATYYCHQLNSFPFTFGQGTKLEIKR
As for B2, the binding by ELISA relative to parental in assay [1] is 0.04.

B3: TPP-5906 Fab (Fab, V domains shown)
VH: EVQLVQSGAEVKKPGASVKVSCKASGYTFTTYTIHWVRQAPGQGLEWMGYINPSSGYTRYNPKFKGRVTMTRDKSTSTAYMELRSLRSDDTAVYYCQTGTRDYWGQGTTVTVSS
VL: DIQLTQSPSFLSASVGDRVTITCRASSSVSYIYWFQQKPGKAPKLLIYATSTLQSGVPSRFSGSGSGTEYTLTISSLQPEDFATYYCHQRNSFPYTFGQGTKLEIKR
As to B3, the percent reduction of binding in assay [2], in [3] and in assay [4] was above 95% each time.

B4: TPP-5349 (Fab, V domains shown)
VH: EVQLVQSGAEVKKPGASVKVSCKASGYTFTTYTIHWVRQAPGQGLEWIGYINPSSDYTRYNPKFKDRVTLTTDKSTSTAYMELRSLRSDDTAVYYCQTGTRDYWGQGTTVTVSS
VL: DIQLTQSPSFLSASVGDRVTITCSAASSVSYIYWFQQKPGKAPKLLIYSASTLPSGVPSRFSGSGSGTEYTLTISSLQPEDFATYYCHQRNSFPFTFGQGTKLEIKR
On to B4, for which the binding by ELISA relative to parental in [5] amounted to 0.09.

B5: TPP-5325 (Fab, V domains shown)
VH: EVQLVQSGAEVKKPGASVKVSCKASGYTFTTYTIHWVRQAPGQGLEWIGYINPSSDYTSYNPKFKDRVTLTTDKSTSTAYMELRSLRSDDTAVYYCQTGTRDYWGQGTTVTVSS
VL: DIQLTQSPSFLSASVGDRVTITCSAASSVSYIYWFQQKPGKAPKLLIYSTSTLPSGVPSRFSGSGSGTEYTLTISSLQPEDFATYYCHQRNSFPFTFGQGTKLEIKR
In the case of B5, the binding by ELISA relative to parental in assay [1] amounted to 0.07.

B6: TPP-5336 (Fab, V domains shown)
VH: EVQLVQSGAEVKKPGASVKVSCKASGYTFTTYTIHWVRQAPGQGLEWIGYINPSSDYTRYNPKFKDRVTLTTDKSTSTAYMELRSLRSDDTAVYYCQRGTRDYWGQGTTVTVSS
VL: DIQLTQSPSFLSASVGDRVTITCSAASSVSYIYWFQQKPGKAPKLLIYSTSTLPSGVPSRFSGSGSGTEYTLTISSLQPEDFATYYCHQRNSFPFTFGQGTKLEIKR
Take B6: the binding by ELISA relative to parental in assay [1] worked out at 0.06.

B7: TPP-5339, Hu6C12-24 Fab variant VH: (E1Q, I48M, L70M, T72R, K74T, R84S, D89E, Q97A, T98R) (Fab, V domains shown)
VH: QVQLVQSGAEVKKPGASVKVSCKASGYTFTTYTIHWVRQAPGQGLEWMGYINPSSDYTRYNPKFKDRVTMTRDTSTSTAYMELSSLRSEDTAVYYCARGTRDYWGQGTTVTVSS
VL: DIQLTQSPSFLSASVGDRVTITCSAASSVSYIYWFQQKPGKAPKLLIYSTSTLPSGVPSRFSGSGSGTEYTLTISSLQPEDFATYYCHQRNSFPFTFGQGTKLEIKR
In the case of B7, the binding in ELISA relative to parental Fab (relative to parental Fab) in assay [6] was 0.3.

B8: TPP-5346 (Fab, V domains shown)
VH: EVQLVQSGAEVKKPGASVKVSCKASGYTFTTYTIHWVRQAPGQGLEWIGYINPSSDYTRYNPKFKDRVTLTTDKSTSTAYMELRSLRSDDTAVYYCQTGTRDYWGQGTTVTVSS
VL: DIQLTQSPSFLSASVGDRVTITCSAASSVSYIAWFQQKPGKAPKLLIYSTSTLPSGVPSRFSGSGSGTEYTLTISSLQPEDFATYYCHQRNSFPFTFGQGTKLEIKR
In the case of B8, in assay [1], the binding by ELISA relative to parental is 0.04.

B9: TPP-5906 parental scFv (humanized and germlined 6C12) (scFv)
scFv: DIQLTQSPSFLSASVGDRVTITCRASSSVSYIYWFQQKPGKAPKLLIYATSTLQSGVPSRFSGSGSGTEYTLTISSLQPEDFATYYCHQRNSFPYTFGQGTKLEIKGGGGSGGGGSGGGGSGGGGSEVQLVQSGAEVKKPGASVKVSCKASGYTFTTYTIHWVRQAPGQGLEWMGYINPSSGYTRYNPKFKGRVTMTRDKSTSTAYMELRSLRSDDTAVYYCQTGTRDYWGQGTTVTVSS
As to B9, the percentage of input scFv antibody bound in assay [7] stood at 0%; in [8] it was 100%; in assay [9] it was 90%; in assay [10], 3%; in assay [11], 16%; in assay [12], 0%.
